According to PMC3762189:

Tests used:
[1] = molecular target: branch junction (bovine Arp2/3 complex with mother and daughter actin filaments) (bovine | rabbit) (UniProt P61157)
[2] = molecular target: G-actin (rabbit muscle actin monomers) (rabbit) (UniProt P68135); experiment: fluorescence polarisation; competition: anisotropy of 50 nM Rhodamine-VCA with 150 nM G-actin and increasing VCA or VCA mutants; 10 mM Hepes pH 7.0, 50 mM KCl, 1 mM MgCl2, 1 mM EGTA, 1 mM DTT, 0.2 mM ATP, 350 nM Latrunculin B; KD is the mean of at least three fits
[3] = molecular target: actin filaments (33% Oregon-Green actin), filament sides (rabbit) (UniProt P68135); experiment: single-molecule TIRF microscopy; during active branching: 1 µM 33% Oregon-Green actin, 5 nM Arp2/3 complex, 50 nM VCA and 2 nM Alexa568-cortactin; average lifetimes for each binding class
[4] = molecular target: branch junction (bovine Arp2/3 complex with mother and daughter actin filaments) (bovine | rabbit) (UniProt P61157); experiment: as above
[5] = molecular target: actin filaments (33% Oregon-Green actin), filament sides (rabbit) (UniProt P68135); experiment: single-molecule TIRF microscopy; 2 nM Alexa568-cortactin (1–336) on polymerizing filaments of 1 µM 33% Oregon-Green actin, no Arp2/3 complex; filaments tethered by biotinylated myosin; lifetimes fit with a single exponential
[6] = molecular target: actin filaments (33% Oregon-Green actin), filament sides (rabbit) (UniProt P68135); experiment: single-molecule TIRF microscopy; preformed branched networks (1 µM 33% Oregon-Green actin, 5 nM Arp2/3 complex, 30 nM VCA, ~6 min), then 1.5 nM Alexa568-cortactin and 0.1 µM actin monomers; koff from lifetimes, KD from the average fraction bound, kon calculated from KD and koff
[7] = molecular target: branch junction (bovine Arp2/3 complex with mother and daughter actin filaments) (bovine | rabbit) (UniProt P61157); experiment: as above
[8] = molecular target: branch junction (bovine Arp2/3 complex with mother and daughter actin filaments) (bovine | rabbit) (UniProt P61157); experiment: single-molecule TIRF microscopy; during active branching: 1 µM 33% Oregon-Green actin, 10 nM Arp2/3 complex, 350 nM VCA and 10 nM Alexa568-NtA(1-48)

Chain of cortactin NtA (residues 1–84) (Q60598 1-84): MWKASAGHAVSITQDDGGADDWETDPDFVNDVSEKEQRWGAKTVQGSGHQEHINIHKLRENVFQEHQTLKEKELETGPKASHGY

cortactin NtA (residues 1–84) (from UniProt Q60598 1-84) (domain or fragment)
concentration of NtA (1–84) required for half-maximal synergy with GST-VCA (maximum rate of pyrene-actin polymerization; 2 µM 15% pyrene-actin, 20 nM Arp2/3 complex, 250 nM GST-VCA) [1]: 11 µM

N-WASP-VCA(R442A) (from UniProt Q95107 1-505) (domain or fragment)
Kd [2]: 11.2 µM

Alexa568-cortactin (residues 1–336) (from UniProt Q60598 1-336) (domain or fragment)
lifetime on filament sides during active branching [3]: 8 s | average lifetime at the junction after nucleation [4]: 62 s | average lifetime before nucleation (nascent branch junction) [4]: 6.5 s | average lifetime on existing branch junctions during active branching [4]: 29.5 s | koff [5]: 0.05 s⁻¹ | Kd [6]: 5.21 µM | koff [6]: 0.063 s⁻¹ | kon [6]: 12100 M⁻¹ s⁻¹ | Kd [7]: 0.017 µM | average lifetime on branch junctions (preformed filament reactions) [7]: 29.1 s | koff [7]: 0.034 s⁻¹ | kon [7]: 2e+06 M⁻¹ s⁻¹

N-WASP-VCA(E455R) (from UniProt Q95107 1-505) (domain or fragment)
Kd [2]: 0.63 µM

Alexa568-NtA(1-48) (from UniProt Q60598 1-48) (domain or fragment)
time bound after daughter filament nucleation (one event shown) [8]: 4.5 s
